The values below come from US7989417B2, “Linkers for radiopharmaceutical compounds” (Bracco Imaging S.p.A., priority 2003, dated 2011).

Data set [1] in a line: Tracer dose biodistribution in xenografted PC3 tumor-bearing mice. The following applies: Lu-177 labelled; for uptake in the tumor (in words): 1 and 24 h; for uptake in the mouse pancreas (in words): compared with L134, pancreas known to have GRP receptors. The method, then:
In all studies, mice were administered 100 μL of ^177Lu-labelled test compound at 200 μCi/kg, i.v., with a residence time of 1 and 24 h per group (n=3-4). Tissues were analyzed in an LKB 1282 CompuGamma counter with appropriate standards.

Data set [2] relates to PC3 tumor. In words: Radiotherapy studies in PC3 tumor-bearing nude mouse model. It counts as in vivo. The following applies: Lu-177 labelled; for survival, short term efficacy study: 30 mCi/kg i.v. or s.c., up to 30 days, versus no treatment and versus same dose of L134. The procedure:
A. Short Term Efficacy Studies: • Radiotherapy studies were performed using the PC3 tumor-bearing nude mouse model. […] (n=12 for each treatment group and n=36 for the untreated control group). For the first study, mice were administered 100 μL of ^177Lu-labelled compound of the invention at 30 mCi/kg, i.v, or s.c. under sterile conditions. The subjects were housed in a barrier environment for up to 30 days. Body weight and tumor size (by caliper measurement) were collected on each subject 3 times per week for the duration of the study. Criteria for early termination included: death; loss of total body weight (TBW) equal to or greater than 20%; tumor size equal to or greater than 2 cm^3.

The test system of data set [3] is rat epididymal fat cells. The data set is described as follows: Fat cell assay: activation of glucose oxidation. The data set is classed as cell-based. The following applies: buffers containing serum albumin; compared with native insulin.
The target in data set [4] is human serum albumin (Homo sapiens, UniProt P02768). The data set is described as follows: Binding to human serum albumin by ultrafiltration. The following applies: 1 nM insulin solution in 0.6 mM human serum albumin, spiked with 125I-labeled insulin. The procedure:
Binding to human serum albumin is determined by ultrafiltration according to Whitlam J. B. & Brown K. F.: J. Pharm. Sci. 70, 146-150, 1981, applying 1 nM bovine insulin solution in 0.6 mM human serum albumin, spiked with ^125I-labeled insulin. 95% of the insulin is bound. It is evident that such binding to albumin will reduce the renal elimination of the modified insulin (Compounds B and D) relative to that of native insulin.

The subject of data set [5] is rat epididymal fat cells. The following applies: bound to a 1:1 conjugate of avidin and ferritin; compared with insulin; cited from earlier work.

Take `CSCC[C@H](NC(=O)[C@H](CC(C)C)NC(=O)[C@H](Cc1c[nH]cn1)NC(=O)CNC(=O)[C@@H](NC(=O)[C@H](C)NC(=O)[C@H](Cc1c[nH]c2ccccc12)NC(=O)[C@H](CCC(N)=O)NC(=O)CC[C@@H](C)[C@H]1CC[C@H]2[C@@H]3CC[C@@H]4C[C@@H](NC(=O)CNC(=O)CN5CCN(CC(=O)O)CCN(CC(=O)O)CCN(CC(=O)O)CC5)CC[C@]4(C)[C@H]3C[C@H](O)[C@]12C)C(C)C)C(N)=O` [Compound L63, N-[(3β,5β,12α)-3-[[[[[4,7,10-Tris(carboxymethyl)-1,4,7,10-tetraazacyclododec-1-yl]acetyl]amino]acetyl]amino]-12-hydroxy-24-oxocholan-24-yl]-L-glutaminyl-L-tryptophyl-L-alanyl-L-valyl-glycyl-L-histidyl-L-leucyl-L-methioninamide]: in data set [1] (compared with control L134), the “uptake in the tumor (in words)” value is on record as “high tumour uptake”; the “distribution of radioactivity in blood, liver and kidneys (in words)” value was “increased blood and liver values at early times”. The “uptake in the mouse pancreas (in words)” value in data set [1] is reported as “much higher”. Also, the “survival, short term efficacy study” value in data set [2] is reported as “increased survival”.

On to `CSCC[C@H](NC(=O)[C@H](CC(C)C)NC(=O)[C@H](Cc1c[nH]cn1)NC(=O)CNC(=O)[C@@H](NC(=O)[C@H](C)NC(=O)[C@H](Cc1c[nH]c2ccccc12)NC(=O)[C@H](CCC(N)=O)NC(=O)CC[C@@H](C)[C@H]1CC[C@H]2[C@@H]3[C@H](O)C[C@@H]4C[C@@H](NC(=O)CNC(=O)CN5CCN(CC(=O)O)CCN(CC(=O)O)CCN(CC(=O)O)CC5)CC[C@]4(C)[C@H]3C[C@H](O)[C@]12C)C(C)C)C(N)=O` [Compound L64, N-[(3β,5β,7α,12α)-3-[[[[[4,7,10-Tris(carboxymethyl)-1,4,7,10-tetraazacyclododec-1-yl]acetyl]amino]acetyl]amino]-7,12-dihydroxy-24-oxocholan-24-yl]-L-glutaminyl-L-tryptophyl-L-alanyl-L-valyl-glycyl-L-histidyl-L-leucyl-L-methioninamide], for which the “uptake in the tumor (in words)” value in data set [1] (compared with control L134) was “much higher”. The “uptake in the mouse pancreas (in words)” value in data set [1] was “much higher”. Further, the “survival, short term efficacy study” value in data set [2] is listed as “increased survival”. In addition, the “survival, repeat study” value in data set [2] (same dose, n=46, followed longer, relative to controls (n=36), p<0.0001) is on record as “significantly increased survival”.

As for “Bovine 1-[[(3β,5β,12α)-23-[(1,1-dimethyl)ethoxycarbonyl]-12-hydroxy-24-norcholan-3-yl]amino]carbonyl-3,5-bis[[4-(insulin-N^εB29-yl)-1,4-dioxobutyl]amino]benzene [Compound D]”, in data set [3], the “activity in fat cell assay (activation of glucose oxidation)” value is “identical activity to native insulin”.

Regarding “Bovine N^eB29-[4-[[(3β,5β,12α)-23-carboxy-12-hydroxy-24-norcholan-3-yl]amino]-4-oxobutanoyl]-insulin [Compound B]”, the “activity in fat cell assay (activation of glucose oxidation)” value in data set [3] is listed as “identical activity to native insulin”. The “bound to human serum albumin” value in data set [4] was 95%.

N^εB29-biotinylinsulin: in data set [5], the “dose-response curve for the activation of glucose oxidation” value was “same dose-response curve as insulin”.
